Substrate in series [1]: CC(C)=CCOP(=O)(O)OP(=O)(O)O
The series is described as follows: HPLC assay of artepillin C formation; non-linear least-squares fit. It is filed as biochemical, Artemisia capillaris. The note with it: N. benthamiana microsomes, 0.5 mM drupanin, 10 mM MgCl2, 30 °C, 20 min, 12.5-200 µM DMAPP, mean ± SE.

Substrate in series [2]: CC(C)=CCc1cc(/C=C/C(=O)O)ccc1O
Described as above. It counts as biochemical, Artemisia capillaris. The conditions noted are these: N. benthamiana microsomes, 0.5 mM DMAPP, 10 mM MgCl2, 30 °C, 20 min, 15.6-250 µM drupanin, mean ± SE.

Consider one protein from PMC6802118, “Isolation of Artemisia capillaris membrane-bound di-prenyltransferase for phenylpropanoids and redesign of artepillin C in yeast” (Communications Biology, 2019).

Usually Km stands for the concentration of substrate that gives half-maximal velocity.

B1: AcPT1 (Artemisia capillaris) (protein)
chain: ISKVENNVSAQFQRRGYKNHFGQSLHEPLSLQKMDEEKFKLNAASTNNPQFDATHDLVKPTESVISFLEVLFRFIRPYAAVGTVLCIASMSLLTVEKLSDFSPLFFMKVLQALVGAMFMQMWVCGINQICDIELDKINKPSLPLASGELSMTTAITVSALSAIMSFSIGWIASPALFWGFVGWFVVGTAYSANLPWLRWKRFPLTSAFYMLCSRALVVPIGYYLHMQKSIHGGSALLSRPILFAVGMLSAFCISTIFFKDIPDIEGDRMHGIKSLAITLGEKRTFWMCIWILEIAYVAAAFFGATSPITWSKYITVISHLAMALALWTRAKSTDVKNKDAVQSMYYFLWQLFFAEYGLIALVR
notes: full CDS, 401 aa incl. predicted 38-aa plastid transit peptide; untagged (pGWB502, 35S promoter); transient expression in Nicotiana benthamiana leaves; microsomes
Turning to B1, the Km in series [1] was 130 ± 20 µM; in series [2], 50 ± 5 µM.
